Test results as given in the Human Domainome abundance scans (Beltran et al. 2025).

B1: Androgen receptor, residues 557 to 632; numbered along this chain, P10275 (parent)
chain: QKTCLICGDEASGCHYGALTCGSCKVFFKRAAEGKQKYLCASRNDCTIDKFRRKNCPSCRLRKCYEAGMTLGARKL

Variants of: B1
Assay: abundance fitness (aPCA) (normalised: wild type 0, dead -1); higher = more abundant; growth selection in yeast, the domain comes from the species named
Details: Homo sapiens

Abundance fitness of substitutions, site by site:
D9: Y -0.609 | I -0.109 | E -0.171 | R -0.378 | K -0.53
K29: G -0.039 | L -0.331 | C -0.49 | N -0.123 | F 0.019 | S -0.248 | M -0.245 | I -0.353 | P -0.377 | R -0.075 | D -0.258 | E 0.202 | Q -0.169 | H -0.024
G8: Y 0.036 | E -0.045 | H -0.06 | S -0.165 | N -0.29 | A 0.009 | K -0.111 | Q -0.463 | L -0.146 | T -0.31 | C -0.319 | R -0.43 | V -0.868 | W -0.529
S12: V -0.025 | G -0.056 | N 0.21 | T -0.149 | A -0.046 | F -0.389 | Q 0.049 | R -0.06 | M -0.026 | D -0.031 | H -0.237 | E 0.047 | L 0.055 | P -0.077 | I -0.091 | K -0.054 | Y -0.031 | W -0.181 | C -0.305
L19: D -0.048 | A -0.063 | G -0.399 | E 0.034 | K -0.015 | I -0.034 | M -0.03 | C -0.19 | W 0.029 | Y -0.101 | Q 0.059 | R -0.006 | N -0.065 | S -0.109 | T -0.017 | V -0.035 | P -0.106
T20: L -0.166 | Q -0.856 | W -0.637 | M -1 | V 0.04 | K -0.755 | R -0.859 | N -0.441 | I -0.035 | C 0.002 | P -0.724 | A -0.041 | H -0.299 | E -0.825 | G -0.539 | S 0.047
C21: V -0.754 | A -0.732 | Y -0.849 | I -0.777 | P -1.21 | H -0.602 | R -0.895 | S -1.05 | M -0.953 | E -0.68 | T -0.81 | W -0.694 | G -0.976 | Q -0.564 | K -0.988 | L -0.993 | D -1.23
C14: R -0.142 | G -0.11 | T 0.099 | V -0.231 | Q -0.133 | N -0.351 | S -0.105 | F -0.1 | E 0.002 | A -0.013 | I 0.085 | H -0.035 | D 0.081 | P -0.057 | M -0.087 | L 0 | W -0.419
H15: V -0.182 | L -0.211 | Q -0.175 | T 0.045 | A -0.151 | N -0.157 | P -0.27 | R -0.221 | G -0.151 | M -0.088 | Y -0.237 | I -0.063 | W 0.097 | C -0.037 | K -0.106 | D -0.177 | E 0.099
F27: L -0.766 | H -0.805 | P -0.655 | I -0.548 | W -0.387 | Q -0.839 | R -0.977 | T -0.91 | S -0.983 | M -1.01 | G -0.884 | K -0.816 | Y -0.598 | E -0.73 | C -0.833 | A -0.729 | D -0.519
G13: W -0.571 | M -0.163 | N -0.201 | R -0.2 | V -0.061 | S -0.034 | L -0.115 | C -0.311 | D -0.198 | I -0.416 | T -0.057 | E -0.274 | A -0.167 | K -0.229
